In patent US20110239327A1, “Nematicidal Effects of Cysteine Proteinases and Methods of Use Thereof to Treat Nematode Infestation” (priority 2007, published 2011):

Columns and labels:
M. incognita J2 = assay: In planta bioassay, two soil applications: nematode infection of tomato roots; format: in vivo, M. incognita on tomato plants; settings: two soil applications of enzyme (250 μM papain, 2.2 μM bromelain, 3.3 mM actinidin as printed), soil 16% organic matter, 11 days
Procedure: Oxamyl is supplied as 10% liquid Vydate. 125 μl of a solution 1000 fold dilution of 10% formulation (kindly supplied by DK from NIU) was applied to 5 g of the soil mixture with 16% organic matter, to give a partial nematicidal effect. Soil mixtures were wetted with PBS pH 7.2, 16 hrs prior nematode application of 1000 or 2000 M. incognita J2. Infected soil mixtures were treated with water (control) or 250 μM of active papain in 16 mM of L-cysteine or a combination of Vydate and 250 μM of active papain in 16 mM of L-cysteine. After 48 hs tomato seedlings one month old were added to the treated soils. After 11 days the roots were washed free of soil and chopped to approximately 2 mm pieces. The root pieces of each tomato plant was placed in muslin bags and stained with acid-fuchsin. The stained roots were examined under microscope and all the nematodes present in the roots were counted. […] After 48 hours tomato seedlings one month old were added to the treated soils and after 11 days post infection nematode development inside root tissues was assessed as described above.
The avermectins are macrocyclic lactones produced by the actinomycete Streptomyces avermitilis. […] After 48 hs tomato seedlings one month old were added to the treated soils and after 11 days post infection nematode development inside root tissues was assessed as described above. […]

Meloidogyne spp. J2s = assay: Light microscopy and SEM of cuticle damage of Meloidogyne spp. J2s; format: cell-based, M. incognita or M. javanica
Procedure: Approximately 1000 J2s (second juvenile stage) of M. incognita or M. javanica were incubated per well of a 48-well plate with the following active enzyme concentrations (determined by E-64 titration) of papain dissolved in distilled water containing 16 mM L-cysteine (to activate the cysteine proteinase): 1.5 μM, 3 μM, 6.25 μM, 12.5 μM, 25 μM, 50 μM, 75 μM and 100 μM. Control wells contained J2s and distilled water with and without 16 mM L-cysteine, or J2s and 1 mM E-64, with and without 50 μM (active enzyme) papain, which had been preincubated for 25 mins at 40° C. Each enzyme concentration and the controls were set up in duplicate (n=2) or triplicate (n=3). The number of active J2s per well was counted prior to the addition of papain, and then the J2s were incubated in the dark at room temperature for 3 h. The number of mobile J2s per well was counted after 60, 120 and 180 mins. The nematode surfaces were examined for signs of damage using a light microscope (Zeiss Axioskop) at ×20, ×40 and ×100 magnification and photographs were taken with a Xillix Microimager. The same procedure was followed when setting up further experiments to compare the effects of 25 μM papain, 25 μM crude papaya latex (0.625 g/ml), 25 μM stem bromelain (0.18 g/ml) and 25 μM actinidin (active enzyme concentrations) with M. incognita, M. javanica or G. rostochiensis.
The effects on the J2 cuticle were more closely examined by scanning electron microscopy (SEM). Approximately 2000 J2s were used per enzyme or control treatment. These J2s were added to each of four 5 ml tubes and centrifuged at 2500 rpm 4° C. for 5 mins. The supernatant was removed and the J2s were resuspended with 500 μl of 100 μM papain, 100 μM actinidin (active enzyme concentrations) or distilled water with and without 16 mM L-cysteine (the enzyme dilutions were prepared with 16 mM L-cysteine dissolved in distilled water). The nematodes were incubated in the dark at ambient temperature for 4 h before centrifugation as above. The J2s were immediately fixed with 2.5% glutaraldehyde in 0.15M phosphate buffer, pH 7.2 for 1 h at room temperature and were then centrifuged as before prior to washing for 1 h in 0.15M phosphate buffer, pH 7.2 at 4° C. These J2s were then prepared for SEM as described previously by Stepek et al. (2005).

B1: papain (protein, UniProt P00784 134-345, looked up)
Papain: IPEYVDWRQKGAVTPVKNQGSCGSCWAFSAVVTIEGIIKIRTGNLNEYSEQELLDCDRRSYGCNGGYPWSALQLVAQYGIHYRNTYPYEGVQRYCRSREKGPYAAKTDGVRQVQPYNEGALLYSIANQPVSVVLEAAGKDFQLYRGGIFVGPCGNKVDHAVAAVGYGPNYILIKNSWGTGWGENGYIRIKRGTGNSYGVCGLYTSSFYPVKN
notes: cysteine proteinase from Carica papaya, Merops C01.001, Sigma P3125
reduction of nematode infection of plants (M. incognita J2): 89% | visible effects on the surface of the nematodes (Meloidogyne spp. J2s; papain 1.5 μM and 3 μM, light microscopy): no visible effects on the surface | digestion of the cuticle at the anterior end (light micrographs) (Meloidogyne spp. J2s; papain 6.25 μM and 100 μM active enzyme, 3 h): Digestion of the cuticle was evident | appearance of the internal structures (light micrographs) (Meloidogyne spp. J2s; papain 100 μM, 3 h): abnormal granular appearance of the internal structures | active enzyme concentration causing blistering of the cuticle (Meloidogyne spp. J2s; papain, light microscopy x40 and x100, anterior end): above 6.25 μM
